5 proteins from patent publication US20150273042 can be followed below.

Series [1] has as its target synthetic fluorescent peptide carrying the LPXTG sorting motif of PI-1 minor ancillary protein.
For series [2], the target named is synthetic fluorescent peptide carrying the LPXTG sorting motif of PI-1 backbone protein.
Series [3] addresses recombinant ancillary protein 2 of GBS pilus 2a (AP2-2a).
In series [4] the target is recombinant ancillary protein 1 of GBS pilus 2a (AP1-2a).
The target in series [5] is recombinant BP-2a (strain 515) with Lys189 replaced by alanine.
Series [6] addresses GFP-… (EGFP from pSpeedET with … added at the C-terminus).
In series [7] the target is T1, recombinant BP-2a (strain 515) lacking the C-terminal IPQTG sorting signal, BP 30-640.
T1 chain: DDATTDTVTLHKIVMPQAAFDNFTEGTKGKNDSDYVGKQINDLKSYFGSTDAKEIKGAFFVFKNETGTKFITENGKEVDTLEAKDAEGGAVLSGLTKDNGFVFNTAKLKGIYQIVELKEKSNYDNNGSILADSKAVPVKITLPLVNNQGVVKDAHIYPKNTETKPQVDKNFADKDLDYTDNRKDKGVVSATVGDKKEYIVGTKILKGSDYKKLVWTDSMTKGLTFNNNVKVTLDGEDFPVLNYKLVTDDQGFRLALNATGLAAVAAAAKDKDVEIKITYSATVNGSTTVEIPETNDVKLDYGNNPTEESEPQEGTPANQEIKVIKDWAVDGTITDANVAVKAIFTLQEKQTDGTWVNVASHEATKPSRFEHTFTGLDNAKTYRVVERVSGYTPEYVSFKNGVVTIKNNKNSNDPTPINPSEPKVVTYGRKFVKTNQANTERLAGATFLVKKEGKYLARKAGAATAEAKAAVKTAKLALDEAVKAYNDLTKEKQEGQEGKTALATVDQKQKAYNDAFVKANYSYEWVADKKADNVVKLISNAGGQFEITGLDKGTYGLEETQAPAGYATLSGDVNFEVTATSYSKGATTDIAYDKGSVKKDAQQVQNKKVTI

In series [8] the target is T2, backbone protein PI-1 of GBS (GBS 80).
T2 chain: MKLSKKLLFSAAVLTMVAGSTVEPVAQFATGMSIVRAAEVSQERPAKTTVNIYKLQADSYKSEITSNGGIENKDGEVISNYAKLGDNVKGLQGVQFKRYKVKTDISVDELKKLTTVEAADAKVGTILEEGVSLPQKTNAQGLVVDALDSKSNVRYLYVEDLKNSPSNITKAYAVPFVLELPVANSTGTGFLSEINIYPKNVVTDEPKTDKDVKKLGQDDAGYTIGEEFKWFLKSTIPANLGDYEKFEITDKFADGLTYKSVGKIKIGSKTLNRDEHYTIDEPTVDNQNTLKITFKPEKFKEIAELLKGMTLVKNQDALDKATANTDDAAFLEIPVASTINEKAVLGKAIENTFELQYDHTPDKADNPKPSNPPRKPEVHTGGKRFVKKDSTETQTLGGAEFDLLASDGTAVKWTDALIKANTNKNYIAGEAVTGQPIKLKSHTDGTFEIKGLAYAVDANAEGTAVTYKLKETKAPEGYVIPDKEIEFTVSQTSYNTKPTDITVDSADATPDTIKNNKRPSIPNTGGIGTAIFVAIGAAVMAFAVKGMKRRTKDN

The target in series [9] is pilus protein from Streptococcus pneumoniae (RrgB).
Series [10] deals with T3, recombinant backbone protein of GBS pilus 2a (BP-2a, GBS59), strain 515, BP 30-649.
T3 chain: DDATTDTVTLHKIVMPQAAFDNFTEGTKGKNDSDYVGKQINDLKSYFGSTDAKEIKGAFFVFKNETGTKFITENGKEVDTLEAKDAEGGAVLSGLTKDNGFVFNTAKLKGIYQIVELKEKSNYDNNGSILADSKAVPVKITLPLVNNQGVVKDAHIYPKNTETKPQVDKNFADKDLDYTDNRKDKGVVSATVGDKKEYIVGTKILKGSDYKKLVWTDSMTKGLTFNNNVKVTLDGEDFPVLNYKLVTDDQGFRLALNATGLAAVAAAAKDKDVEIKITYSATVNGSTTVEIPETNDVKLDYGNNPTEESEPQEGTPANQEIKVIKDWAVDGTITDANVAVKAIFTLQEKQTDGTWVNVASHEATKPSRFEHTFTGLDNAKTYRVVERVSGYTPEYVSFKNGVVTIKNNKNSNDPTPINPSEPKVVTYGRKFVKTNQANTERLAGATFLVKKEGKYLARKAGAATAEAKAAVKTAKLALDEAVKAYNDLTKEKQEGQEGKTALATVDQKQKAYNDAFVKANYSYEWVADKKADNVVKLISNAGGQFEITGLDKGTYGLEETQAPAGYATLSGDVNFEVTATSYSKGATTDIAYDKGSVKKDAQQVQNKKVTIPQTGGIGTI

Series [11] deals with T4, backbone protein of GBS PI-2b (Spb1) expressed from a complementation vector in GBS strain 515Δ2a.
T4 chain: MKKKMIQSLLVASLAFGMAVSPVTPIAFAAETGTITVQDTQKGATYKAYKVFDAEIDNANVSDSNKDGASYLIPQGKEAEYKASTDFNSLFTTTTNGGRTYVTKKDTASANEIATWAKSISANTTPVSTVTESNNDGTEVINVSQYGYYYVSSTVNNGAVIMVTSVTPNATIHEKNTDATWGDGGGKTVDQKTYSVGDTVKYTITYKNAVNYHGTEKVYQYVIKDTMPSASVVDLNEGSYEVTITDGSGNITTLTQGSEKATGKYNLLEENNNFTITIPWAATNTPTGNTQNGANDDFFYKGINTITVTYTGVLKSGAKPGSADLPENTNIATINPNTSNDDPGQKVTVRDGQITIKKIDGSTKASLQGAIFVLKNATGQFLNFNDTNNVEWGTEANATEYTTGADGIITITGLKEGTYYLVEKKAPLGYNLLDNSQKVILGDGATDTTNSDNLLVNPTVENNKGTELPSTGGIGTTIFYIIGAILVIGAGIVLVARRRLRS

B1: recombinant PI-2b SrtC2 (full-length, strain COH1) in fusion with a His-MBP-tag (protein)
chain: MIRRYSANFLAILGIILVSSGIYWGWYNINQAHQADLTSQHIVKVLDKSITHQVKGSENGELPVKKLDKTDYLGTLDIPNLKLHLPVAANYSFEQLSKTPTRYYGSYLTNNMVICAHNFPYHFDALKNVDMGTDVYFTTTTGQIYHYKISNREIIEPTAIEKVYKTATSDNDWDLSLFTCTKAGVARVLVRCQLIDVKN
For B1, the “FRET assay, cleavage of fluorescent peptide” value in [1] was “The PI-2b SrtC1 and SrtC2 enzymes are able to cleave the fluorescent peptides”; in [2], “The PI-2b SrtC1 and SrtC2 enzymes are able to cleave the fluorescent peptides”.

B2: GBS sortase C1 of PI-2a lid mutant SrtC1Y86A (protein)
chain: ESNNQTQDFERAAKKLSQKEINRRMALAQAYNDSLNNVHLEDPAEKKRIQKGIAEYARMLEVSEKIGIISVPKIGQKLPIFAGSSQEVLSKGAGHLEGTSLPIGGNSTHTVITAHSGIPDKELFSNLKKLKKGDKFYIQNIKETIAYQVDQIKVVTPDNFSDLLVVPGHDYATLLTCTPIMVNTHRLLVRGHRIPYKGPIDEKLIKDGHLNTIYRYLFYISLVIIAWLLWLIKRQRQKNRLSSVRKGIES
For the protein B2, the “in vitro polymerization (HMW structures on SDS-PAGE)” value in [3] and in [4] was “some HMW structures were formed” in each case. In addition, the “in vitro polymerization (HMW polymers on SDS-PAGE)” value in [5] is “HMW polymers could be observed”; in series [7] it was “HMW polymers could not be detected”. Besides, the “in vitro polymerization reaction” value in [6] is given as “the SrtC1Y86A mutant was able to polymerise GFP-IPQTG”. Besides, the “in vitro polymerization (SDS-PAGE)” value in series [8] and in series [9] was “FIG. 7 shows that mutant sortase enzymes polymerize pilus proteins from a variety of gram positive bacteria” each time. Moreover, the “in vitro polymerization (high-molecular-weight bands on SDS-PAGE)” value in series [10] is given as “The typical pili pattern of bands with molecular weights above 260 kDa, visible by SDS-page, could be generated when monomeric r-BP was incubated with rSrtC1Y86A”.

B3: wild-type GBS sortase C1 of PI-2a, recombinant SrtC1 43-292 (protein)
chain: ESNNQTQDFERAAKKLSQKEINRRMALAQAYNDSLNNVHLEDPYEKKRIQKGIAEYARMLEVSEKIGIISVPKIGQKLPIFAGSSQEVLSKGAGHLEGTSLPIGGNSTHTVITAHSGIPDKELFSNLKKLKKGDKFYIQNIKETIAYQVDQIKVVTPDNFSDLLVVPGHDYATLLTCTPIMVNTHRLLVRGHRIPYKGPIDEKLIKDGHLNTIYRYLFYISLVIIAWLLWLIKRQRQKNRLSSVRKGIES
In the case of B3, the “in vitro polymerization (high-molecular-weight bands on SDS-PAGE)” value in series [10] is reported as “showed no formation of high molecular weight bands that could represent pilus polymers”.

B4: recombinant PI-2b SrtC1 (full-length, strain COH1) in fusion with a His-MBP-tag (protein)
chain: MAYPSLANYWNSFHQSRAIMDYQDRVTHMDENDYKKIINRAKEYNKQFKTSGMKWHMTSQERLDYNSQLAIDKTGNMGYISIPKINIKLPLYHGTSEKVLQTSIGHLEGSSLPIGGDSTHSILSGHRGLPSSRLFSDLDKLKVGDHWTVSILNETYTYQVDQIRTVKPDDLRDLQIVKGKDYQTLVTCTPYGVNTHRLLVRGHRVPNDNGNALVVAEAIQIEPIYIAPFIAIFLTLILLLISLEVTRRARQRKKILKQAMRKEENNDL
Take B4: the “FRET assay, cleavage of fluorescent peptide” value in [1] was “The PI-2b SrtC1 and SrtC2 enzymes are able to cleave the fluorescent peptides”; in series [2], “The PI-2b SrtC1 and SrtC2 enzymes are able to cleave the fluorescent peptides”.

B5: PI-2b SrtC1 expressed from a complementation vector in GBS strain 515Δ2a (protein)
chain: MAYPSLANYWNSFHQSRAIMDYQDRVTHMDENDYKKIINRAKEYNKQFKTSGMKWHMTSQERLDYNSQLAIDKTGNMGYISIPKINIKLPLYHGTSEKVLQTSIGHLEGSSLPIGGDSTHSILSGHRGLPSSRLFSDLDKLKVGDHWTVSILNETYTYQVDQIRTVKPDDLRDLQIVKGKDYQTLVTCTPYGVNTHRLLVRGHRVPNDNGNALVVAEAIQIEPIYIAPFIAIFLTLILLLISLEVTRRARQRKKILKQAMRKEENNDL
Take B5: in series [11], the “pili polymerisation in complemented GBS 515Δ2a (western blot)” value was “transfection with BP and SrtC1 resulted in the formation of high molecular weight polymers”.
